For data set [1], the target named is T1, EN2 (Engrailed-2), recombinant (human, UniProt P19622 1-333).
T1 sequence: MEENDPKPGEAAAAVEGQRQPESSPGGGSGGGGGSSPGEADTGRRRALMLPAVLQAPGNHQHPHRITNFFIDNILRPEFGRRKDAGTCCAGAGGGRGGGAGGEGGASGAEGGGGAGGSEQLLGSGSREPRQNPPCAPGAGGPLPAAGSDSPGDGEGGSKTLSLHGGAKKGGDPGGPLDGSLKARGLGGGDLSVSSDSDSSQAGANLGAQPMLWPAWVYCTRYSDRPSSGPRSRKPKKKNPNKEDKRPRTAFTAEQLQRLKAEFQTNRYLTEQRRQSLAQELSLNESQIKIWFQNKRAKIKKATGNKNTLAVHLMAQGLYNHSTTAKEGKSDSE
The experiment in a line: plate fluorescence binding (EN2 immobilized); signal saturates at 250 nM EN2; 20 mM Tris-HCl, 50 mM NaCl, 5 mM KCl, 5 mM MgCl2, pH 8.0, room temperature, 1 h. Particulars: protein: recombinant; tags: N-terminal His (pET28a); label: 5'-FAM; hairpin.

Data set [2] addresses T1, EN2 (Engrailed-2), recombinant. The data set can be described thus: magnetic-bead fluorescence assay (His-EN2 on NTA beads); 5 mM Mg2+; 20 mM Tris-HCl, 50 mM NaCl, 5 mM KCl, 5 mM MgCl2, pH 8.0, room temperature, 1 h. Particulars: protein: recombinant; tags: N-terminal His (pET28a); label: 5'-FAM.

Consider CGCATAATTACCTCCAGAAGGAGAGGTAATTATGCG (structured_DNA) [EN2 motif hairpin DNA], for which the binding result in data set [1] is reported as “binds”.

Consider AGCGGATCCGAGGTGAGGAGCGCCGGTGAGACTCCTTCATTCTATCTGCT (structured_DNA) [EBA (trimmed H90)], for which the dissociation constant (Kd) (commonly the equilibrium constant for the complex coming apart) in data set [2] turned out to be 8.26 nM.

Source of the values: article PMC9263169, “Aptamer-antibody hybrid ELONA that uses hybridization chain reaction to detect a urinary biomarker EN2 for bladder and prostate cancer”.
